Source: patent US7589167B2, “ZA loops of bromodomains” (J. David Gladstone Institutes, priority 2000, dated 2009)
Where a SMILES comes first, the peptide text is derived from it.

Columns and labels:
[1] = biological target: T1, P/CAF bromodomain (Homo sapiens, UniProt Q92831, P804A/P805A); assay: Peptide competition assay with biotinylated wild type Tat AcK50 peptide (western blot); type: binding; conditions: protein ~10 μM, wild type:mutant peptide 1:2
T1 construct: poly-His (N, cleaved yes); made in house; host or cells: Escherichia coli BL21(DE3)
T1 sequence (Q92831 719-832 P804A/P805A): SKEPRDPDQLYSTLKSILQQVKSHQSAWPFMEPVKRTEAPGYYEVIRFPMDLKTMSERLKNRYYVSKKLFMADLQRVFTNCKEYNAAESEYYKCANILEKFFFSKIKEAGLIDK
Experimental: Peptide binding assay. […] Streptavidin agarose (10 μL) was added to mixture and the beads were washed twice in the Tris buffer with 500 mM NaCl and 0.1% NP-40. Proteins were eluted from the argarose beads in SDS buffer and separated on a 14% SDS-PAGE. The resolved proteins were transferred onto nitrocellulose membrane (Pharmacia), and the membrane was blocked overnight with 5% non-fat milk in washing buffer of 20 mM Tris, pH 7.5, plus 150 mM NaCl and 0.1% Tween-20 at 4° C. Western blotting was performed with anti-GST antibody (Sigma) and goat anti-rabbit IgG conjugated with horseradish-peroxidase (Promega) and developed by chemiluminescence. Peptide competition experiments were performed by incubating various non-biotinylated and mutant Tat peptide with the P/CAF bromodomain and the biotinylated and wild type Tat peptide. The molar ratio of the wild type and mutant Tat peptides in the mixture were kept at 1:2. The binding results were analyses by using the procedure as described above.

[2] = biological target: T2, P/CAF (Homo sapiens, UniProt Q92831); assay: Western blot assay to detect P/CAF interaction with the Tat protein in cells; type: cell-based; conditions: FLAG-Tat, HA-P/CAF
T2 construct: HA; expressed in transfected cells
T2 sequence (Q92831 whole entry): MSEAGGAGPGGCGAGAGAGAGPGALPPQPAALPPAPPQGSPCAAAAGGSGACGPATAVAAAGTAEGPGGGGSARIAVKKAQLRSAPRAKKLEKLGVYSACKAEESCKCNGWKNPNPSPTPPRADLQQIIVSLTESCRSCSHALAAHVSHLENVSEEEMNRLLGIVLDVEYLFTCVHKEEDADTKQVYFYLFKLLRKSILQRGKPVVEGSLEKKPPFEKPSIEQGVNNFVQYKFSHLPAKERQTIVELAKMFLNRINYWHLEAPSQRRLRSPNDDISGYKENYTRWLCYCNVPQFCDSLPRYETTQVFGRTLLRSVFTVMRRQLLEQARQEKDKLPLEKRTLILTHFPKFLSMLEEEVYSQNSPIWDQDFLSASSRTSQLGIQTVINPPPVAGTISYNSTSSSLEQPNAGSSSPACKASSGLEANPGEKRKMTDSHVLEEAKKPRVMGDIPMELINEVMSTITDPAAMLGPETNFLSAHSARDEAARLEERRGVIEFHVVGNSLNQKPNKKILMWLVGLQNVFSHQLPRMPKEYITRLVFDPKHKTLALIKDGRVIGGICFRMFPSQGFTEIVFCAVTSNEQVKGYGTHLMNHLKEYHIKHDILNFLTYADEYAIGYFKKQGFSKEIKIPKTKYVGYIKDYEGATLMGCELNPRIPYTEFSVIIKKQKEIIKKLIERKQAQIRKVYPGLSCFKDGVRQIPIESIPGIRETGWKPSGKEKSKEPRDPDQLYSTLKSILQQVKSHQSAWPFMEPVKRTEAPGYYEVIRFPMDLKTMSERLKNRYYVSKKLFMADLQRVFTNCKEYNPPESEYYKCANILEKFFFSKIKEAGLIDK
Text: FIGS. 8A-8B show a western blot assay to detect P/CAF interaction with the Tat protein. Note that the protein-protein interaction was only observed with the wild type Tat but not with the Tat K50R/K51R mutant protein. The FLAG was joined to the Tat peptide, whereas the HA-tag was joined to P/CAF.

[3] = test system: Tat transactivation activity; assay: Superinduction of Tat transactivation activity by P/CAF; type: cell-based, HIV-1
Text: FIG. 7 is a bar graph of the measurement of superinduction of Tat transactivation activity by P/CAF. Tat-KK is the wild type Tat protein, and Tat-RR is the double mutant Tat carrying lysine to arginine mutations at K50 and K51 positions.

| Molecule | competition with / binding relative to Tat AcK50 peptide (qualitative) [1] | specific interaction with P/CAF in cells [2] | increase of Tat transactivation activity upon P/CAF stimulation [3] |
| --- | --- | --- | --- |
| CC(=O)NCCCC[C@H](NC(=O)[C@H](CCCCN)NC(=O)[C@H](CS)NC(=O)[C@H](Cc1ccc(O)cc1)NC(=O)[C@H](CS)NC(=O)[C@H](CC(N)=O)NC(=O)[C@@H](N)[C@@H](C)O)C(=O)N[C@@H](CS)C(=O)N[C@@H](CS)C(=O)N[C@@H](Cc1ccccc1)C(=O)N[C@@H](Cc1c[nH]cn1)C(=O)O [Tat AcK 28 peptide, TNCYCK-AcK-CCFH] (H-TNCYCKK(Ac)CCFH-OH) | almost no competition | – | – |
| Tat: wild type HIV-1 Tat protein (SEQ ID NO:45) (protein, Human immunodeficiency virus type 1; Tat protein) MEPVDPRLEPWKHPGSQPKTASNNCYCKRCCLHCQVCFTKKGLGISYGRKKRRQRRRAPQDSKTHQVSLSKQPASQPRGDPTGPKESKKKVERETETDPED | – | detected | ≤ 30 fold |
